The source of these data is paper PMC8563947 (Scientific Reports, 2021).

Positions count from the first letter of the chain named. Names may count otherwise.

For test [1], the target named is T1, green fluorescent protein (Aequorea victoria (assumed; GFP variant …, UniProt P42212 = GFP).
T1 construct: green fluorescent protein (GFP, 27 kDa); the GFP construct may be there; also called GFP; recombinant GFP; source: E. coli BL21 (DE3), purified (Ni-NTA agarose)
Description: SPR; Biacore T-200, multicycle; 265-274 RU of recombinant GFP immobilised on CM5 chip; Nbs flowed in five dilutions; HBS-EP+ buffer, 25 °C, 30 μL/min. Conditions: both partners purified. A general note: Surface plasmon resonance follows binding to a sensor surface in real time, without labels.

The target in test [2] is T1, green fluorescent protein. The description is as above. Conditions: both partners purified. This is another data set of the same source.

B1: anti-GFP mutant nanobody Y37A without peptide barcode (VHH)
VHH: QVQLVESGGALVQPGGSLRLSCAASGFPVNRYSMRWARQAPGKEREWVAGMSSAGDRSSYEDSVKGRFTISRDDARNTVYLQMNSLKPEDTAVYYCNVNVGFEYWGQGTQVTVSS
notes: as the VHH chain of m2 with the stated change; source: P. pastoris, purified (Ni-NTA agarose)
By Kd is commonly meant the free concentration of one partner at which half of the binding sites on the other are occupied at equilibrium, for simple one-to-one binding. By koff is commonly meant the first-order rate constant of dissociation. In general, kon refers to a measure of how fast the partners come together. Consider B1, for which, in test [1], the Kd amounted to 16.4 nM, the dissociation rate constant (koff) was 0.0759 s⁻¹ and the kon came out at 4.62e+06 M⁻¹ s⁻¹.

B2: anti-GFP mutant nanobody E103A without peptide barcode (VHH)
VHH: B1 VHH with A37Y, E103A
notes: as for B1
Turning to B2, the binding result in test [1] was “no binding”.

B3: anti-GFP mutant nanobody R57A without peptide barcode (VHH)
VHH: B1 VHH with A37Y, R57A
notes: as the VHH chain of m2 with the stated change; source: Pichia pastoris GS115, culture medium, purified (His SpinTrap)
In the case of B3, in test [2], the Kd turned out to be 0.02 nM, the dissociation rate constant (koff) worked out at 6.72e-05 s⁻¹ and the on-rate (kon) was 3.42e+06 M⁻¹ s⁻¹.

B4: anti-GFP mutant nanobody W47A without peptide barcode (VHH)
VHH: B1 VHH with A37Y, W47A
notes: as for B1
On to B4, for which, in test [1], the Kd stood at 0.722 nM, the koff worked out at 0.00606 s⁻¹ and the on-rate constant (kon) came to 8.39e+06 M⁻¹ s⁻¹.

B5: anti-GFP mutant nanobody R35A without peptide barcode (VHH)
VHH: B1 VHH with R35A, A37Y
notes: as for B1
For the molecule B5, the binding result in test [1] is “no binding”.

B6: anti-GFP mutant nanobody F102A without peptide barcode (VHH)
VHH: B1 VHH with A37Y, F102A
notes: as for B3
As to B6, in test [2], the dissociation constant Kd was 0.121 nM, the off-rate constant (koff) turned out to be 0.000628 s⁻¹ and the kon was 5.2e+06 M⁻¹ s⁻¹.

B7: anti-GFP mutant nanobody G50A without peptide barcode (VHH)
VHH: B1 VHH with A37Y, G50A
notes: as for B1
With B7, the binding result in test [1] is reported as “no binding”.
